Among the data in the RNAGym collection of RNA variant scans (doi:10.7554/elife.80360) are self-cleavage values, retold here.

First the molecules themselves.
B1: Hairpin Ribozyme (parent)
chain: GUCCUCUUUCACGUGCGCGUGAAAGAGAGAAGUGAACCAGAGAAACACACGUUGUGGUAUAUUACCUGGUA

In this data set the parent is B1. Kind of data set: self-cleavage, relative activity (ratio to wild type); higher = more cleavage; co-transcriptional.
For the variant GUCCUCUUUCACGUGCGCGUGAAAUAGAGAAGUGAACCAGAGAAACACACGUUGAGGUAUAUUACCUGGUA [G25U U55A], the self-cleavage stood at 0.216.
In the case of GUCCUCUUUCACGUGCGCGUGAAAUAGAGAAGUGAACCAGAGAAACACACGUUGGGGUAUAUUACCUGGUA [G25U U55G] it was 0.195.
Regarding GUCCUCUUUCACGUGCGCGUGAAAUAGAGAAGUGAACCCGAGAAACACACGUUGUGGUAUAUUACCUGGUA [G25U A39C], the self-cleavage turned out to be 0.336.
In the case of GUCCUCUUUCACGUGCGCGUGAAAUAGAGAAGUGAACCAGAGUAACACACGUUGUGGUAUAUUACCUGGUA [G25U A43U] it was 0.217.
Turning to GUCCUCUUUCACGUGCGCGUGAAAUAGAGAAGUGAACCAGAGGAACACACGUUGUGGUAUAUUACCUGGUA [G25U A43G], the self-cleavage turned out to be 0.183.
Then GUCCUCUUUCACGUGCGCGUGAAAGCGAGAAGUGAACCAGAGAAACACACGUUGUGGUAUAUUUCCUGGUA [A26C A64U], with 0.158; and GUCCUCUUUCACGUGCGCGUGAAAGCGAGAAGUGAACCAGAGAAACACACGUUGUGGUAUAUUGCCUGGUA [A26C A64G], with 0.539; and GUCCUCUUUCACGUGCGCGUGAAAUAGAGAAGUGCACCAGAGAAACACACGUUGUGGUAUAUUACCUGGUA [G25U A35C], with 0.691.
Consider GUCCUCUUUCACGUGCGCGUGAAAUAGAGAAGUGAACCAGAGAAACACACGUUGUGAUAUAUUACCUGGUA [G25U G57A], for which the self-cleavage was 0.145.
Consider GUCCUCUUUCACGUGCGCGUGAAAUAGAGAAGUGAACCAGAGAAACACACGUUGUGGUAUAUUACCUGGUA [G25U], for which the self-cleavage worked out at 0.65.
In the case of GUCCUCUUUCACGUGCGCGUGAAAUAGAGAAGUGAACCAGAGAAACACACGUUGUGGUAUAUUACCAGGUA [G25U U67A] it was 0.145; in that of GUCCUCUUUCACGUGCGCGUGAAAUAGAGAAGUGAACCAGAGAAACACACGUUGUGGUAUAUUACCUGCUA [G25U G69C], 0.0669; in that of GUCCUCUUUCACGUGCGCGUGAAAUAGAGAAGUGAACCAGAGAAACACACGUUGUGGUAUAUUACCUGUUA [G25U G69U], 0.165.
In the case of GUCCUCUUUCACGUGCGCGUGAAAGCGAGAUGUGAACCAGAGAAACACACGUUGUGGUAUAUUACCUGGUA [A26C A31U] it was 0.097; in that of GUCCUCUUUCACGUGCGCGUGAAAGCGAGACGUGAACCAGAGAAACACACGUUGUGGUAUAUUACCUGGUA [A26C A31C], 0.0424; in that of GUCCUCUUUCACGUGCGCGUGAAAGCGAGAGGUGAACCAGAGAAACACACGUUGUGGUAUAUUACCUGGUA [A26C A31G], 0.445.
As to GUCCUCUUUCACGUGCGCGUGAAAUAGAGAAGUGAACCAGAGAAACACACGUUCUGGUAUAUUACCUGGUA [G25U G54C], the self-cleavage is 0.241.
Then GUCCUCUUUCACGUGCGCGUGAAAUAGAGAAGUGAAACAGAGAAACACACGUUGUGGUAUAUUACCUGGUA [G25U C37A], with 0.261; and GUCCUCUUUCACGUGCGCGUGAAAGCGAGAAGUGAACCAGAGAUACACACGUUGUGGUAUAUUACCUGGUA [A26C A44U], with 0.193; and GUCCUCUUUCACGUGCGCGUGAAAUAGAGAAUUGAACCAGAGAAACACACGUUGUGGUAUAUUACCUGGUA [G25U G32U], with 0.0897.
In the case of GUCCUCUUUCACGUGCGCGUGAAAUAGAGAACUGAACCAGAGAAACACACGUUGUGGUAUAUUACCUGGUA [G25U G32C], the self-cleavage was 0.187.
As for GUCCUCUUUCACGUGCGCGUGAAAUAGAGAAGUGAACCAGAGAAACACACGUUGUGGUAUAUUACCUCGUA [G25U G68C], the self-cleavage was determined as 0.243.
Then GUCCUCUUUCACGUGCGCGUGAAAUAGAGAAGUGAACCAGAGAAACACACGUUGUGGUAUAUUACCUUGUA [G25U G68U], with 0.159.
For GUCCUCUUUCACGUGCGCGUGAAAUAGAGAAGUGAACCAGAGAAACACACGUUGUGGUUUAUUACCUGGUA [G25U A59U], the self-cleavage was 0.237.
With GUCCUCUUUCACGUGCGCGUGAAAUAGAGUAGUGAACCAGAGAAACACACGUUGUGGUAUAUUACCUGGUA [G25U A30U], the self-cleavage was 0.0827.
With GUCCUCUUUCACGUGCGCGUGAAAUAGAGGAGUGAACCAGAGAAACACACGUUGUGGUAUAUUACCUGGUA [G25U A30G], the self-cleavage was 0.124.
For GUCCUCUUUCACGUGCGCGUGAAAUAGAGAAGUGAACCAGAGAAACACACGUUGUGGUAUAUUAUCUGGUA [G25U C65U], the self-cleavage is 0.188.
With GUCCUCUUUCACGUGCGCGUGAAAUAGAGAAGUGAACCAGAGAAACACACGUUGUGGUAUAUUAGCUGGUA [G25U C65G], the self-cleavage was 0.211.
In the case of GUCCUCUUUCACGUGCGCGUGAAAUAGAGAAGUGAACCAGAGAAACACACGUUGUGGUAUAUUAACUGGUA [G25U C65A] it was 0.735; in that of GUCCUCUUUCACGUGCGCGUGAAAUAGAGAAGUGAACCAGACAAACACACGUUGUGGUAUAUUACCUGGUA [G25U G42C], 0.22; in that of GUCCUCUUUCACGUGCGCGUGAAAUAGAGAAGUGAACCAGAUAAACACACGUUGUGGUAUAUUACCUGGUA [G25U G42U], 0.183.
Then GUCCUCUUUCACGUGCGCGUGAAAGCGAGAAGUGAACCAGAGCAACACACGUUGUGGUAUAUUACCUGGUA [A26C A43C], with 0.159; and GUCCUCUUUCACGUGCGCGUGAAAUAGAGAAGGGAACCAGAGAAACACACGUUGUGGUAUAUUACCUGGUA [G25U U33G], with 0.168.
Take GUCCUCUUUCACGUGCGCGUGAAAUAGAGAAGUGAACGAGAGAAACACACGUUGUGGUAUAUUACCUGGUA [G25U C38G]: the self-cleavage came out at 0.0734.
Then GUCCUCUUUCACGUGCGCGUGAAAGCGAGAAGUGAACCAGAGAAACACACGUUGUGGUAUCUUACCUGGUA [A26C A61C], with 0.0459; and GUCCUCUUUCACGUGCGCGUGAAAGCGAGAAGUGAACCAGAGAAACACACGUUGUGGUAUAUUACCUGGUG [A26C A71G], with 1.01; and GUCCUCUUUCACGUGCGCGUGAAAUAGAGAAGUGAACCAGAGAAACACACGUCGUGGUAUAUUACCUGGUA [G25U U53C], with 0.689.
GUCCUCUUUCACGUGCGCGUGAAAUAGAGAAGUGAACCAGAGAAACACACGUGGUGGUAUAUUACCUGGUA [G25U U53G]: the self-cleavage was found to be 0.376.
